Several values for one entry are separate records, joined by “and”; a condition that tells them apart may be missing. Equal values may be shown once.
Key:
human BCMA on cells [1] = target: T1, human BCMA on cells (human, UniProt Q02223 1-184); test: flow cytometry on RPMI-8226 multiple myeloma cells, PE anti-human Fc F(ab')2 detection; estimated EC50
T1 construct: whole, on cells; also called huBCMA on HEK cells; HEK-huBCMA cells
T1 sequence (looked up): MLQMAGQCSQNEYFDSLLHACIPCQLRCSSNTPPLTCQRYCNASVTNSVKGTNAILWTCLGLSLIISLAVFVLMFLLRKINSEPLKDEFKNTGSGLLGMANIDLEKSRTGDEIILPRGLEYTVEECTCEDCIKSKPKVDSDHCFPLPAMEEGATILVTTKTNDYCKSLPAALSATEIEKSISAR
Method: (§1) Briefly, cultured cells are harvested, counted and cell viability was evaluated using ViCell. Viable cells are then adjusted to 2×10⁶ cells per ml in BSA-containing FACS Stain Buffer (BD Biosciences). 100 μl of this cell suspension were further aliquoted per well into a round-bottom 96-well plate and incubated with 30 μl of the anti-BCMA antibodies or corresponding IgG control for 30 min at 4° c. All Anti-BCMA/anti-CD3 TCB antibodies (and TCB controls) were titrated and analyzed in final concentration range between 1-300 nM. Cells were then centrifuged (5 min, 350×g), washed with 120 μl/well FACS Stain Buffer (BD Biosciences), resuspended and incubated for an additional 30 min at 4° C. with fluorochrome-conjugated PE-conjugated AffiniPure F(ab′)2 Fragment goat anti-human IgG Fc Fragment Specific (Jackson Immuno Research Lab; 109-116-170). Cells were then washed twice with Stain Buffer (BD Biosciences), fixed using 100 ul BD Fixation buffer per well (#BD Biosciences, 554655) at 4° C. for 20 min, resuspended in 120 μl FACS buffer and analyzed using BD FACS CantoII.

human BCMA on cells [2] = target: T1, human BCMA on cells; test: cell-based or functional assay
human BCMA on cells [3] = target: T1, human BCMA on cells; test: flow cytometry on H929 multiple myeloma cells, PE anti-human Fc F(ab')2 detection; estimated EC50
Method: as §1

human BCMA on cells [4] = target: T1, human BCMA on cells; test: cell-based or functional assay; remark: listed apart in the source
human BCMA on cells [5] = target: T1, human BCMA on cells; test: cell-based or functional assay; remark: listed apart in the source
human BCMA on cells [6] = target: T1, human BCMA on cells; test: flow cytometry on L363 multiple myeloma cells, PE anti-human Fc F(ab')2 detection; estimated EC50
Method: as §1

human BCMA on cells [7] = target: T1, human BCMA on cells; test: cell-based or functional assay; remark: listed apart in the source
human BCMA on cells [8] = target: T1, human BCMA on cells; test: cell-based or functional assay; remark: listed apart in the source

B1: 42-TCBcv (bispecific antibody, human IgG1, kappa, L234A L235A)
heavy 1: not shown
heavy 2: EVQLLESGGGLVQPGGSLRLSCAASGFTFSDNAMGWVRQAPGKGLEWVSAISGPGSSTYYADSVKGRFTISRDNSKNTLYLQMNSLRAEDTAVYYCAKVLGWFDYWGQGTLVTVSSASTKGPSVFPLAPSSKSTSGGTAALGCLVEDYFPEPVTVSWNSGALTSGVHTFPAVLQSSGLYSLSSVVTVPSSSLGTQTYICNVNHKPSNTKVDEKVEPKSCDKTHTCPPCPAPEAAGGPSVFLFPPKPKDTLMISRTPEVTCVVVDVSHEDPEVKFNWYVDGVEVHNAKTKPREEQYNSTYRVVSVLTVLHQDWLNGKEYKCKVSNKALGAPIEKTISKAKGQPREPQVCTLPPSRDELTKNQVSLSCAVKGFYPSDIAVEWESNGQPENNYKTTPPVLDSDGSFFLVSKLTVDKSRWQQGNVFSCSVMHEALHNHYTQKSLSLSPGK
light 1: EIVLTQSPGTLSLSPGERATLSCRASQSVSDEYLSWYQQKPGQAPRLLIHSASTRATGIPDRFSGSGSGTDFTLAISRLEPEDFAVYYCQQYGYPPDFTFGQGTKVEIKRTVAAPSVFIFPPSDRKLKSGTASVVCLLNNFYPREAKVQWKVDNALQSGNSQESVTEQDSKDSTYSLSSTLTLSKADYEKHKVYACEVTHQGLSSPVTKSFNRGEC
light 2: EVQLLESGGGLVQPGGSLRLSCAASGFTFSTYAMNWVRQAPGKGLEWVSRIRSKYNNYATYYADSVKGRFTISRDDSKNTLYLQMNSLRAEDTAVYYCVRHGNFGNSYVSWFAYWGQGTLVTVSSASVAAPSVFIFPPSDEQLKSGTASVVCLLNNFYPREAKVQWKVDNALQSGNSQESVTEQDSKDSTYSLSSTLTLSKADYEKHKVYACEVTHQGLSSPVTKSFNRGEC
notes: also called 42-TCVcv; anti-BCMA/anti-CD3 T cell bispecific antibody of Mab42
EC50 (human BCMA on cells [1]): 13.2 nM and 1.91 µg/mL | EC50 of redirected T-cell killing of L363 cells (LDH release), Donor 1 (human BCMA on cells [2]): 15.5 pM | EC50 of redirected T-cell killing of L363 cells (LDH release), Donor 2 (human BCMA on cells [2]): 16.7 pM | EC50 of redirected T-cell killing of L363 cells (LDH release), Donor 3 (human BCMA on cells [2]): 5.2 pM | EC50 of redirected T-cell killing of L363 cells (LDH release), Donor 4 (human BCMA on cells [2]): 2.2 pM | EC50 of redirected T-cell killing of L363 cells (LDH release), Donor 5 (human BCMA on cells [2]): 10.6 pM | EC50 (human BCMA on cells [3]): 13.6 nM and 1.96 µg/mL | EC50 of redirected T-cell killing of H929 cells (LDH release), Donor 1 (human BCMA on cells [4]): 9.7 pM | EC50 of redirected T-cell killing of H929 cells (LDH release), Donor 3 (human BCMA on cells [4]): 11.7 pM | EC50 of redirected T-cell killing of H929 cells (LDH release), Donor 4 (human BCMA on cells [4]): 7.2 pM | EC50 of redirected T-cell killing of H929 cells (LDH release), Donor 5 (human BCMA on cells [4]): 6.8 pM | Lysis of JJN-3 cells (%) at 0.1 pM TCB, Experiment 2 (human BCMA on cells [5]): 17.6% | Lysis of JJN-3 cells (%) at 1 pM TCB, Experiment 1 (human BCMA on cells [5]): 40.3% | Lysis of JJN-3 cells (%) at 1 pM TCB, Experiment 2 (human BCMA on cells [5]): 34.9% | Lysis of JJN-3 cells (%) at 10 pM TCB, Experiment 1 (human BCMA on cells [5]): 39% | Lysis of JJN-3 cells (%) at 10 pM TCB, Experiment 2 (human BCMA on cells [5]): 39.4% | Lysis of JJN-3 cells (%) at 100 pM TCB, Experiment 1 (human BCMA on cells [5]): 41.9% | Lysis of JJN-3 cells (%) at 100 pM TCB, Experiment 2 (human BCMA on cells [5]): 55.3% | Lysis of JJN-3 cells (%) at 1000 pM TCB, Experiment 1 (human BCMA on cells [5]): 84% | Lysis of JJN-3 cells (%) at 1000 pM TCB, Experiment 2 (human BCMA on cells [5]): 81.1% | Lysis of JJN-3 cells (%) at 10000 pM TCB, Experiment 1 (human BCMA on cells [5]): 92.9% | Lysis of JJN-3 cells (%) at 10000 pM TCB, Experiment 2 (human BCMA on cells [5]): 90.4% | EC50 (human BCMA on cells [6]): 3.8 nM and 0.553 µg/mL | Annexin-V positive JJN-3 cells (%) at 0.1 pM TCB, Experiment 2 (human BCMA on cells [7]): 12.8% | Annexin-V positive JJN-3 cells (%) at 1 pM TCB, Experiment 1 (human BCMA on cells [7]): 11.9% | Annexin-V positive JJN-3 cells (%) at 1 pM TCB, Experiment 2 (human BCMA on cells [7]): 13.5% | Annexin-V positive JJN-3 cells (%) at 10 pM TCB, Experiment 1 (human BCMA on cells [7]): 12.3% | Annexin-V positive JJN-3 cells (%) at 10 pM TCB, Experiment 2 (human BCMA on cells [7]): 13.6% | Annexin-V positive JJN-3 cells (%) at 100 pM TCB, Experiment 1 (human BCMA on cells [7]): 8.62% | Annexin-V positive JJN-3 cells (%) at 100 pM TCB, Experiment 2 (human BCMA on cells [7]): 14.4% | Annexin-V positive JJN-3 cells (%) at 1000 pM TCB, Experiment 1 (human BCMA on cells [7]): 16.8% | Annexin-V positive JJN-3 cells (%) at 1000 pM TCB, Experiment 2 (human BCMA on cells [7]): 21.7% | Annexin-V positive JJN-3 cells (%) at 10000 pM TCB, Experiment 1 (human BCMA on cells [7]): 24.8% | Annexin-V positive JJN-3 cells (%) at 10000 pM TCB, Experiment 2 (human BCMA on cells [7]): 26.9% | EC50 of redirected T-cell killing of RPMI-8226 cells (LDH release), Donor 2 (human BCMA on cells [8]): 383 pM | EC50 of redirected T-cell killing of RPMI-8226 cells (LDH release), Donor 3 (human BCMA on cells [8]): 18.7 pM | EC50 of redirected T-cell killing of RPMI-8226 cells (LDH release), Donor 4 (human BCMA on cells [8]): 3.5 pM | EC50 of redirected T-cell killing of RPMI-8226 cells (LDH release), Donor 5 (human BCMA on cells [8]): 1.5 pM

— patent US20220002427A1 (ENGMAB SARL, published 2022)
